Data: patent publication US20250051426A1 (IGALPHAN, published 2025)

T1: E. coli wild-type SHMT (GST fusion protein) (E. coli, UniProt P0A825 1-417)
T1 construct: Overexpressed in E. coli as a GST fusion, purified and immobilized on the ELISA plate at 2 ug/ml; not shown: Glutathione-S-transferase (GST) fusion partner
T1 sequence: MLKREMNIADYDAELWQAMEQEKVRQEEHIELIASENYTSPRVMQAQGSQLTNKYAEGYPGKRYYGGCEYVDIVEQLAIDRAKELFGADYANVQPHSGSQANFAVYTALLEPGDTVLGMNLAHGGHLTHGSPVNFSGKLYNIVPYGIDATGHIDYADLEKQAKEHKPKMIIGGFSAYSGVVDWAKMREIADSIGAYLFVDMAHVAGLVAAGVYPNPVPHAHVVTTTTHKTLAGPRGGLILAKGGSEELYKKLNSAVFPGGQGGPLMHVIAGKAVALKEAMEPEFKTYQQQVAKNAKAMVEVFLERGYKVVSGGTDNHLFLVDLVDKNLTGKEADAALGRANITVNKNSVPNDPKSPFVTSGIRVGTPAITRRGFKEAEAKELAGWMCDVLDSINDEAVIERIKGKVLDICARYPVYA

T2: C. difficile iPGM (486-509) (C. difficile)
T2 construct: Expressed as a GST fusion; GST was cleaved off and removed before crystallization
T2 peptide: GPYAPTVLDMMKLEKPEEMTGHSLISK

T3: E. coli SHMT (25-45) (E. coli)
T3 construct: Expressed as a GST fusion; GST was cleaved off and removed before crystallization
T3 peptide: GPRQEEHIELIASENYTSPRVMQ

T4: E. coli iPGM (E. coli, UniProt P37689 1-514, limits assumed)
T4 sequence (looked up): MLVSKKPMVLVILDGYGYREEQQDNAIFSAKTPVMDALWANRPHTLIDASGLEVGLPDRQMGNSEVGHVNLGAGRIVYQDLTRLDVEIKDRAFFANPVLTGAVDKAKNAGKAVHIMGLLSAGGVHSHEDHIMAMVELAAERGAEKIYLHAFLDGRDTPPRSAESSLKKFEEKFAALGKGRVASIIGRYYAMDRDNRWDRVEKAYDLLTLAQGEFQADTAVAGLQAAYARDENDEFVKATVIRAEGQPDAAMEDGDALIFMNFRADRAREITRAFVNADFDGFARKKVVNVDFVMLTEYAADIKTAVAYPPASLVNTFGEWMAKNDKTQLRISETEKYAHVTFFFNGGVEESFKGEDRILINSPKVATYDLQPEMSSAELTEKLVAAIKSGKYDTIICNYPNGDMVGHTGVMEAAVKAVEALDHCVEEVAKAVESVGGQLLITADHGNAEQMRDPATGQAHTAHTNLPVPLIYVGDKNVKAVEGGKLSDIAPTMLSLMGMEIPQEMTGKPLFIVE

B1: RS_H007_L001 (antibody, V domains shown)
VH: EVQLQQSGSELVKSGASVKLSCTVSGFNFTNYYIHWVRQRTEQGLEWIGRIDPENNQTTYAPKFQGKATMTADTSSNTAYLQLTSLTSEDTAVYYCARSTVLDYWGHGTTLTVSS
VL: DVLMTQSPASLSVSLGDRATISCRASQSIVHTNGNTYLEWYLQKPGQSPKLLIYKVSNRFSGVPDRFSGSGSGTDFILKISRVEAEDLGVYYCFQGSHVPPTFGGGTKLEVK
notes: Mainly dimers
B2: RS_H000_L000GR Fab (Fab, V domains shown)
VH: EVQLQQSGSELVKSGASVKLSCTVSGFNFTDYYIHWVRQRTEQGLEWIGRIDPENDETTYAPKFQGKATMTADTSSNTAYLQLTSLTSEDTAVYYCARSTVLDYWGHGTTLTVSS
VL: DVLMTQTPLSLPVSLGDQASISCRASQSIVHTNGNTYLEWYLQKPGQSPKLLIYKVSNRFSGVPDRFSGSGSGTDFILKISRVEAEDLGVYYCFQGSHVPPTFGGGTKLEVK
notes: Fab made by papain digestion of the W27 recombinant IgG expressed in CHO cells; also called IgG W27 Fab
B3: W27G2 antibody (antibody, V domains shown)
VH: EVQLQQSGSELVKSGASVKLSCTVSGFNFTDYYIHWVRQRTEQGLEWIGRIDPENDETTYAPKFQGKATMTADTSSNTAYLQLTSLTSEDTAVYYCARSTVLDYWGHGTTLTVSS
VL: DVLMTQTPLSLPVSLGDQASISCRASQSIVHTNGNTYLEWYLQKPGQSPKLLIYKVSNRFSGVPDRFSGSGSGTDFILKISRVEAEDLGVYYCFQGSHVPPTFGGGTKLEVKR
notes: Mouse IgA produced by a hybridoma; W27G2CHT is the crude hydroxyapatite-purified preparation; W27G2GF is the multimer fraction after gel filtration; also called hybridoma-derived W27G2 antibody; W27G2CHT
B4: W27 antibody (antibody, V domains shown)
VH: EVQLQQSGSELVKSGASVKLSCTVSGFNFTDYYIHWVRQRTEQGLEWIGRIDPENDETTYAPKFQGKATMTADTSSNTAYLQLTSLTSEDTAVYYCARSTVLDYWGHGTTLTVSS
VL: DVLMTQTPLSLPVSLGDQASISCRASQSIVHTNGNTYLEWYLQKPGQSPKLLIYKVSNRFSGVPDRFSGSGSGTDFILKISRVEAEDLGVYYCFQGSHVPPTFGGGTKLEVK
notes: IgA; also called W27IgA antibody
B5: RS_H000_L001 (antibody, V domains shown)
VH: EVQLQQSGSELVKSGASVKLSCTVSGFNFTDYYIHWVRQRTEQGLEWIGRIDPENDETTYAPKFQGKATMTADTSSNTAYLQLTSLTSEDTAVYYCARSTVLDYWGHGTTLTVSS
VL: DVLMTQSPASLSVSLGDRATISCRASQSIVHTNGNTYLEWYLQKPGQSPKLLIYKVSNRFSGVPDRFSGSGSGTDFILKISRVEAEDLGVYYCFQGSHVPPTFGGGTKLEVK
notes: Mainly dimers by non-reduced SDS-PAGE
B6: RS_H007_L004 (antibody, V domains shown)
VH: EVQLQQSGSELVKSGASVKLSCTVSGFNFTNYYIHWVRQRTEQGLEWIGRIDPENNQTTYAPKFQGKATMTADTSSNTAYLQLTSLTSEDTAVYYCARSTVLDYWGHGTTLTVSS
VL: DVLMTQSPASMSVSLGDRATISCRSSQSIVHTNGNTYLEWYLQKPGQSPKLLIYKVSNRFSGVPDRFSGSGSGTDFILKISRVEAEDLGVYYCFQGSHVPPTFGGGTKLEVK
notes: Mainly dimers
B7: RS_H007_L005 (antibody, V domains shown)
VH: EVQLQQSGSELVKSGASVKLSCTVSGFNFTNYYIHWVRQRTEQGLEWIGRIDPENNQTTYAPKFQGKATMTADTSSNTAYLQLTSLTSEDTAVYYCARSTVLDYWGHGTTLTVSS
VL: DVLMTQSPASLSVSLGDRATISCRSSQSIVHTNGNTYLEWYLQKPGQSPKLLIYKVSNRFSGVPDRFSGSGSGTDFILKISRVEAEDLGVYYCFQGSHVPPTFGGGTKLEVK
notes: Mainly dimers
B8: RS_H000_L005 (antibody, V domains shown)
VH: EVQLQQSGSELVKSGASVKLSCTVSGFNFTDYYIHWVRQRTEQGLEWIGRIDPENDETTYAPKFQGKATMTADTSSNTAYLQLTSLTSEDTAVYYCARSTVLDYWGHGTTLTVSS
VL: DVLMTQSPASLSVSLGDRATISCRSSQSIVHTNGNTYLEWYLQKPGQSPKLLIYKVSNRFSGVPDRFSGSGSGTDFILKISRVEAEDLGVYYCFQGSHVPPTFGGGTKLEVK
notes: Mainly dimers
B9: RS_H007_L002 (antibody, V domains shown)
VH: EVQLQQSGSELVKSGASVKLSCTVSGFNFTNYYIHWVRQRTEQGLEWIGRIDPENNQTTYAPKFQGKATMTADTSSNTAYLQLTSLTSEDTAVYYCARSTVLDYWGHGTTLTVSS
VL: DVLMTQSPASLSVSLGDRVTISCRASQSIVHTNGNTYLEWYLQKPGQSPKLLIYKVSNRFSGVPDRFSGSGSGTDFILKISRVEAEDLGVYYCFQGSHVPPTFGGGTKLEVK
notes: Mainly dimers

Experiments:
[1] = molecular target: T1, E. coli wild-type SHMT (GST fusion …); test: ELISA on immobilized GST fusion protein
[2] = molecular target: T2, C. difficile iPGM (486-509); test: X-ray crystal structure of the Fab-peptide complex
E. coli SHMT (25-45) = molecular target: T3, E. coli SHMT (25-45); test: X-ray crystal structure of the Fab-peptide complex
E. coli iPGM = molecular target: T4, E. coli iPGM; test: Western blot

Row | Binder | binding result [1] | other results
1 | B1 | binds | –
2 | B2 | – | binding result [2]: binds; binding result (E. coli SHMT (25-45)): binds
3 | B3 | binds | –
4 | B4 | – | binding result (E. coli iPGM): no binding
5 | B5 | binds | –
6 | B6 | binds | –
7 | B7 | binds | –
8 | B8 | binds | –
9 | B9 | binds | –
